This test concerns the target T1, HBsAg (乙肝表面抗原) (Hepatitis B virus).
T1 chain: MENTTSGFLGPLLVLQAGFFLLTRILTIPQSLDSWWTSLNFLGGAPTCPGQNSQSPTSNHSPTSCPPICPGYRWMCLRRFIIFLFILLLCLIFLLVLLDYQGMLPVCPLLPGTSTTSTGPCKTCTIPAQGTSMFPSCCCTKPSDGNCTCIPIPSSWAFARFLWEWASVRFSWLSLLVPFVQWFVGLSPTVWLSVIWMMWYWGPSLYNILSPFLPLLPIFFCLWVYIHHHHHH
Description: SPR, Biacore 3000, HBsAg immobilised on CM5 chip (2400 RU), antibody as analyte from 100 nM in 2-fold dilutions.

B1: 人源化抗体M3D (antibody, V domains shown)
VH: QVQLQESGPGLVKPSGTLSLTCAVSGVSISSPYDWTWVRQPPGKGLEWIGRIHGNGGSTSYNPSLKSRVTISVDKSKNQFSLKLSSVTAADTAVYYCVRDETWGQGTLVTVSS
VL: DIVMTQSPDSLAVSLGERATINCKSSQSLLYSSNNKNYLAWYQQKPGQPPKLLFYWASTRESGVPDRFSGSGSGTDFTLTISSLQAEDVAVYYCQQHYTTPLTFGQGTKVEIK
notes: also called humanized M3-23
On to B1, for which the Kd (usually the free concentration of one partner at which half of the binding sites on the other are occupied at equilibrium, for simple one-to-one binding) was 1.12 nM.

B2: 人源化抗体M1D (antibody, V domains shown)
VH: QVQLQESGPGLVKPSETLSLTCTVSGGSITSNFWSWIRQPPGKGLEWIGYISGSGTYTDYNPSLKSRVTISVDTSKNQFSLKLSSVTAADTAVYYCARSHDYGSNDYAFDFWGQGTTVTVSS
VL: DIQMTQSPSSLSASVGDRVTITCRATQDISSSLNWYQQKPGKAPKLLIYYANRLQSGVPSRFSGSGSGTDFTLTISSLQPEDFATYYCQQYHSLPLTFGGGTKVEIK
notes: also called humanized M1-23
B2 registered a Kd of 1.06 nM. The Kd values of the last two molecules are within 1.5-fold of each other.

The values above are taken from patent publication CN108690134A (UNIV XIAMEN; YANG SHENG TANG CO LTD, dated 2018).
